From the Human Domainome abundance scans (Beltran et al. 2025)
± gives the uncertainty stated by the source.

B1: Nucleosome-remodeling factor subunit BPTF, residues 2862 to 2918; numbered along this chain, Q12830 (parent)
chain: TKKDTKLYCICKTPYDESKFYIGCDRCQNWYHGRCVGILQSEAELIDEYVCPQCQST

Variants of: B1
Assay: abundance fitness (aPCA) (normalised: wild type 0, dead -1); higher = more abundant; growth selection in yeast, the domain comes from the species named
Conditions: Homo sapiens
TKKDTKLYCICKTPYDESKFYIGCDRCQNWYHGRDVGILQSEAELIDEYVCPQCQST showed an abundance fitness of -0.931 ± 0.17.
With TKKDTKLYCICKTPYDESKFYIGCDRCQNWYHGRSVGILQSEAELIDEYVCPQCQST the abundance fitness was -0.75 ± 0.076.
With TKKDTKLYCICKTPYDESKFYIGCDRCQNWYHGRLVGILQSEAELIDEYVCPQCQST the abundance fitness was -0.81 ± 0.083.
Variant TKKDTKLYCICKTPYDESKFYIGCDRCQNWYHGRAVGILQSEAELIDEYVCPQCQST has an abundance fitness of -0.827 ± 0.12.
For TKKDTKLYCICKTPYDESKFYIGCDRCQNWYHGRYVGILQSEAELIDEYVCPQCQST, the abundance fitness was -0.878 ± 0.12.
Work on TKKDTKLYCICKTPYDESKFYIGCDRCQNWYHGRPVGILQSEAELIDEYVCPQCQST yielded an abundance fitness of -0.74 ± 0.14.
Variant TKKDTKLYCICKTPYDESKFYIGCDRCQNWYHGRGVGILQSEAELIDEYVCPQCQST has an abundance fitness of -0.958 ± 0.12.
TKKDTKLYCICKTPYDESKFYIGCDRCQNWYHGRWVGILQSEAELIDEYVCPQCQST showed an abundance fitness of -0.981 ± 0.12.
For TKKDTKLYCICKTPYDESKFYIGCDRCQNWYHGRHVGILQSEAELIDEYVCPQCQST, the abundance fitness was -0.764 ± 0.12.
Variant TKKDTKLYCICKTPYDESKFYIGCDRCQNWYHGRNVGILQSEAELIDEYVCPQCQST has an abundance fitness of -1.07 ± 0.18.
Variant TKKDTKLYCICKTPYDESKFYIGCDRCQNWYHGRTVGILQSEAELIDEYVCPQCQST has an abundance fitness of -0.933 ± 0.12.
With TKKDTKLYCICKTPYDESKFYIGCDRCQNWYHGRRVGILQSEAELIDEYVCPQCQST the abundance fitness was -1.01 ± 0.085.
For TKKDTKLYCICKTPYDESKFYIGCDRCQNWYHGRKVGILQSEAELIDEYVCPQCQST, the abundance fitness was -0.915 ± 0.13.
TKKDTKLYCICKTPYDESKFYIGCDRCQNWYHGREVGILQSEAELIDEYVCPQCQST gave an abundance fitness of -0.834 ± 0.16.
TKKDTKLYCICKTPYDESKFYIGCDRCQNWYHGRMVGILQSEAELIDEYVCPQCQST gave an abundance fitness of -0.827 ± 0.13.
For TKKDTKLYCICKTPYDESKFYIGCDRCQNWYHGRFVGILQSEAELIDEYVCPQCQST, the abundance fitness was -0.92 ± 0.12.
Variant TKKDTKLYCICKTPYDESKFYIGCDRCQNWYHGRQVGILQSEAELIDEYVCPQCQST has an abundance fitness of -0.804 ± 0.11.
In the case of TKKDTKLYCICKTPYDESKFYIGCDRCQNWYHGRVVGILQSEAELIDEYVCPQCQST, the abundance fitness is reported as -1.06 ± 0.15.
TKKDTKLYCICKTPYDESKFYIGCDRCQNWYHGYCVGILQSEAELIDEYVCPQCQST showed an abundance fitness of -0.107 ± 0.071.
Work on TKKDTKLYCICKTPYDESKFYIGCDRCQNWYHGDCVGILQSEAELIDEYVCPQCQST yielded an abundance fitness of 0.105 ± 0.1.
TKKDTKLYCICKTPYDESKFYIGCDRCQNWYHGHCVGILQSEAELIDEYVCPQCQST gave an abundance fitness of 0.035 ± 0.073.
Variant TKKDTKLYCICKTPYDESKFYIGCDRCQNWYHGMCVGILQSEAELIDEYVCPQCQST has an abundance fitness of -0.251 ± 0.11.
TKKDTKLYCICKTPYDESKFYIGCDRCQNWYHGSCVGILQSEAELIDEYVCPQCQST gave an abundance fitness of 0.051 ± 0.065.
Variant TKKDTKLYCICKTPYDESKFYIGCDRCQNWYHGKCVGILQSEAELIDEYVCPQCQST has an abundance fitness of 0.109 ± 0.1.
TKKDTKLYCICKTPYDESKFYIGCDRCQNWYHGACVGILQSEAELIDEYVCPQCQST gave an abundance fitness of 0.026 ± 0.084.
TKKDTKLYCICKTPYDESKFYIGCDRCQNWYHGECVGILQSEAELIDEYVCPQCQST showed an abundance fitness of 0.005 ± 0.14.
In the case of TKKDTKLYCICKTPYDESKFYIGCDRCQNWYHGNCVGILQSEAELIDEYVCPQCQST, the abundance fitness is reported as 0.075 ± 0.079.
TKKDTKLYCICKTPYDESKFYIGCDRCQNWYHGWCVGILQSEAELIDEYVCPQCQST gave an abundance fitness of -0.363 ± 0.12.
TKKDTKLYCICKTPYDESKFYIGCDRCQNWYHGPCVGILQSEAELIDEYVCPQCQST showed an abundance fitness of -0.144 ± 0.075.
For TKKDTKLYCICKTPYDESKFYIGCDRCQNWYHGFCVGILQSEAELIDEYVCPQCQST, the abundance fitness was -0.258 ± 0.085.
TKKDTKLYCICKTPYDESKFYIGCDRCQNWYHGICVGILQSEAELIDEYVCPQCQST gave an abundance fitness of -0.164 ± 0.075.
Work on TKKDTKLYCICKTPYDESKFYIGCDRCQNWYHGTCVGILQSEAELIDEYVCPQCQST yielded an abundance fitness of -0.065 ± 0.078.
For TKKDTKLYCICKTPYDESKFYIGCDRCQNWYHGQCVGILQSEAELIDEYVCPQCQST, the abundance fitness was 0.01 ± 0.097.
For TKKDTKLYCICKTPYDESKFYIGCDRCQNWYHGRCVEILQSEAELIDEYVCPQCQST, the abundance fitness was -0.23 ± 0.1.
Work on TKKDTKLYCICKTPYDESKFYIGCDRCQNWYHGRCVHILQSEAELIDEYVCPQCQST yielded an abundance fitness of -0.157 ± 0.13.
For TKKDTKLYCICKTPYDESKFYIGCDRCQNWYHGRCVSILQSEAELIDEYVCPQCQST, the abundance fitness was -0.074 ± 0.07.
In the case of TKKDTKLYCICKTPYDESKFYIGCDRCQNWYHGRCVWILQSEAELIDEYVCPQCQST, the abundance fitness is reported as -0.681 ± 0.13.
TKKDTKLYCICKTPYDESKFYIGCDRCQNWYHGRCVNILQSEAELIDEYVCPQCQST showed an abundance fitness of -0.158 ± 0.18.
Variant TKKDTKLYCICKTPYDESKFYIGCDRCQNWYHGRCVRILQSEAELIDEYVCPQCQST has an abundance fitness of -0.207 ± 0.073.
For TKKDTKLYCICKTPYDESKFYIGCDRCQNWYHGRCVPILQSEAELIDEYVCPQCQST, the abundance fitness was -0.99 ± 0.15.
Work on TKKDTKLYCICKTPYDESKFYIGCDRCQNWYHGRCVYILQSEAELIDEYVCPQCQST yielded an abundance fitness of -0.418 ± 0.12.
TKKDTKLYCICKTPYDESKFYIGCDRCQNWYHGRCVFILQSEAELIDEYVCPQCQST showed an abundance fitness of -0.418 ± 0.11.
Work on TKKDTKLYCICKTPYDESKFYIGCDRCQNWYHGRCVCILQSEAELIDEYVCPQCQST yielded an abundance fitness of -0.379 ± 0.092.
In the case of TKKDTKLYCICKTPYDESKFYIGCDRCQNWYHGRCVIILQSEAELIDEYVCPQCQST, the abundance fitness is reported as -0.882 ± 0.16.
Variant TKKDTKLYCICKTPYDESKFYIGCDRCQNWYHGRCVMILQSEAELIDEYVCPQCQST has an abundance fitness of -0.359 ± 0.12.
Work on TKKDTKLYCICKTPYDESKFYIGCDRCQNWYHGRCVAILQSEAELIDEYVCPQCQST yielded an abundance fitness of -0.277 ± 0.082.
